Earlier results as cited in article PMC8495968, “Towards optimizing peptide-based inhibitors of protein–protein interactions: predictive saturation variation scanning (PreSaVS)” (RSC Chemical Biology, 2021).
pKd: −log10 of the molar value.

Target: SIM (RanBP2) 2705-2717 (Homo sapiens) (UniProt P49792)
Experiment: fluorescence anisotropy

Chain of SUMO-1 (P63165 2-97): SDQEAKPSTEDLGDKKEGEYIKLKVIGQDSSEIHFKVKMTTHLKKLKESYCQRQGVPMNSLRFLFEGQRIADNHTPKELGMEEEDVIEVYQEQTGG

pKd: 5.82
Substance: SUMO-1 (from UniProt P63165)
